Drawing on the supplement of paper PMC10724198, this text covers protein stability index for 116 sequences.

± gives the standard deviation of the averaged measurements.
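Note: PSI is a weighted mean of sequencing reads over stability bins, variants kept only with over 10 reads, mCherry proximal and sfGFP distal, peptide attached via GGGS linker.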

This data set concerns Saccharomyces cerevisiae. The experiment in a line: protein stability index of tFT-peptide fusion (C-terminal peptide) (PSI (0-1 scale)); higher = more stable (slower turnover). The note with it: genetic background: wild type; temperature: 30 C. The procedure: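 Multiplexed protein stability (MPS) profiling in S. cerevisiae. Random 12-aa peptides (tFT-X12 library) are fused to the C-terminus of a sfGFP-mCherry tandem fluorescent timer, after mCherry and a GGGS linker. Cells are FACS-sorted into 8 mCherry/sfGFP bins and deep-sequenced. The protein stability index (PSI) is the read-weighted bin average, scaled from 0 (unstable) to 1 (stable). Only peptides with >10 reads are reported; cells were grown at 30 °C in SC-His with glucose.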
ARVLVLMNGVCV had a protein stability index of 0.592 ± 0.032.
Next, ASCLSPPSPFPR: 0.653 ± 0.013; ASLDTALVHITL: 0.622 ± 0.0064; ASLIGHLKATSP: 0.672 ± 0.014.
Next, ASLLLVFSPPIS: 0.703 ± 0.043; ASNEPQRQELGS: 0.693 ± 0.018.
For ASPSAPPRPPTP, the protein stability index amounted to 0.697 ± 0.013.
ASRADSALGITV: the protein stability index was 0.727 ± 0.055.
Take ASRSGVPGVRVG: the protein stability index worked out at 0.685 ± 0.027.
Next, ASRYPVPLQPHH: 0.6982 ± 0.0044.
Next, ASSFEGVWCTGC: 0.721 ± 0.0093; ASSGGCVPTLPL: 0.68 ± 0.0078.
The sequence ASSLKSTQVSGV registered a protein stability index of 0.72769 ± 0.00011.
In turn, ASSMLPVCLVTL came in with a protein stability index of 0.588 ± 0.056.
For the sequence ASSPSLSSPPTL, the protein stability index came to 0.7106 ± 0.0051.
Sequence ASSVLLIAQLQS registered a protein stability index of 0.619 ± 0.0054.
On to ATDCHVYRPPDL, for which the protein stability index stood at 0.6941 ± 0.0013.
Regarding ATHEEGRVRCGV, the protein stability index worked out at 0.709 ± 0.078.
For the sequence ATIRSSQGFKIY, the protein stability index is 0.612 ± 0.013.
Next, ATIYTAATTYHV: 0.71342 ± 0.00066.
ATPNRSKNKHDT: the protein stability index came out at 0.679 ± 0.0011.
For ATRSTLHDSMVS, the protein stability index is 0.714 ± 0.059.
Take ATSPPGLLAQPA: the protein stability index worked out at 0.663 ± 0.0017.
ATTQLPPPGGMC yielded a protein stability index of 0.695 ± 0.024.
The sequence ATYNRPPPPGLD registered a protein stability index of 0.682 ± 0.068.
ATYTTQQLPNYH: the protein stability index amounted to 0.685 ± 0.011.
Regarding AVCLLRLDRSRA, the protein stability index was 0.665 ± 0.027.
Consider AVERGGRGRVVG, for which the protein stability index was found to be 0.639 ± 0.04.
Turning to AVFLGGLLVSRW, the protein stability index turned out to be 0.682 ± 0.24.
Turning to AVGFVVHNSLKK, the protein stability index was found to be 0.739 ± 0.017.
Regarding AVGGGGRLMCGV, the protein stability index worked out at 0.645 ± 0.053.
The sequence AVGGGVVGQGWV displayed a protein stability index of 0.604 ± 0.012.
Take AVGGWRAGGGGG: the protein stability index was determined as 0.731 ± 0.04.
In turn, AVLRVCHVEVVP yielded a protein stability index of 0.634 ± 0.031.
Next, AVNFESSHPICA: 0.58 ± 0.0073; AVPPQLAPPRPL: 0.679 ± 0.037; AVPSGLPLMFPR: 0.662 ± 0.045.
The sequence AVSAGQASPGRA yielded a protein stability index of 0.681 ± 0.061.
AVSLWAIFPLYT showed a protein stability index of 0.611 ± 0.015.
Next, AVVVCGGGWWWA: 0.746 ± 0.094.
Next, AWCLGVGESRPH: 0.739 ± 0.035.
The sequence AWECCFLGRSGV showed a protein stability index of 0.846 ± 0.075.
Next, AWEETISVIGVM: 0.711 ± 0.048.
For the sequence AWGARWVCVMGG, the protein stability index stood at 0.626 ± 0.027.
For AWGGELGATSGG, the protein stability index turned out to be 0.711 ± 0.0094.
In the case of AWGPGRGGGGDA, the protein stability index was found to be 0.677 ± 0.01.
AWLCSVFLLSLS yielded a protein stability index of 0.533 ± 0.0076.
In turn, AWVVFGLRFGFD had a protein stability index of 0.534 ± 0.053.
AYFGSCCCLPLG: the protein stability index was 0.69 ± 0.039.
AYFLPPLPTTPP had a protein stability index of 0.692 ± 0.054.
Next, AYKGTPTCKTRR: 0.689 ± 0.1.
Sequence AYPRLRPSPSPH showed a protein stability index of 0.7212 ± 0.0066.
The sequence CAHKRTPRLGPE yielded a protein stability index of 0.66 ± 0.077.
Regarding CAITAPINRSWN, the protein stability index came out at 0.702 ± 0.009.
CCCVGRGVGSRF: the protein stability index was found to be 0.703 ± 0.0054.
For CCDWLFCVGVAG, the protein stability index stood at 0.558 ± 0.0079.
Turning to CCFFPPPGRTRQ, the protein stability index amounted to 0.676 ± 0.015.
On to CCLSVFSYESLA, for which the protein stability index was found to be 0.709 ± 0.016.
In the case of CCYCLTVCRWFT, the protein stability index stood at 0.571 ± 0.038.
On to CDDGLIVNKVDS, for which the protein stability index turned out to be 0.665 ± 0.0092.
With CDFASTDSLLGG, the protein stability index is 0.702 ± 0.013.
The sequence CDSSSVGYLVVR registered a protein stability index of 0.655 ± 0.014.
CEAGAGTGGADL returned a protein stability index of 0.674 ± 0.018.
CEFGGEEINQTV: the protein stability index is 0.6951 ± 0.0015.
With CEPSLPGRSRRA, the protein stability index turned out to be 0.753 ± 0.056.
On to CESASGAAWLGG, for which the protein stability index was 0.723 ± 0.029.
CESEAGGGVTLC: the protein stability index stood at 0.669 ± 0.025.
Consider CFAFRPLLPSSP, for which the protein stability index amounted to 0.686 ± 0.0086.
The sequence CFASLLSFCPLV came in with a protein stability index of 0.695 ± 0.065.
As to CFCDDRPSLRRV, the protein stability index turned out to be 0.729 ± 0.019.
Next, CFCPWFGRVCLG: 0.5142 ± 0.0014.
With CFGMMVFFHRVI, the protein stability index is 0.534 ± 0.076.
Next, CFLFLTVSSREG: 0.534 ± 0.03; CFPSFVTFSSLF: 0.7722 ± 0.0041; CFRFPILTSHFY: 0.592 ± 0.026.
CFTPYNPSPLLS: the protein stability index is 0.715 ± 0.021.
Sequence CFWSVIGVQFEV showed a protein stability index of 0.629 ± 0.0095.
Regarding CFYSFWQVTRFL, the protein stability index came to 0.477 ± 0.062.
In turn, CGEEVGGGVMIW came in with a protein stability index of 0.689 ± 0.015.
Next, CGKPRIHEGRLM: 0.691 ± 0.02; CGLSYSISVNMR: 0.627 ± 0.02; CGSGVAVGVLVL: 0.6 ± 0.038.
CGSNSSLQECGV returned a protein stability index of 0.679 ± 0.11.
Take CGSVERAEKGHI: the protein stability index was determined as 0.662 ± 0.025.
CGVEERRIGGVC: the protein stability index worked out at 0.725 ± 0.034.
CGVHQSRATPMS had a protein stability index of 0.663 ± 0.032.
Next, CGWTATRTCGLV: 0.7541 ± 0.0063; CHMSLDGPLLGF: 0.728 ± 0.2.
Sequence CHVRSSILINRT returned a protein stability index of 0.65 ± 0.1.
Next, CIITHSQNKLNT: 0.724 ± 0.059; CKGIGRGGGVVS: 0.607 ± 0.051; CKGSGLGGGVVS: 0.583 ± 0.017.
Sequence CKIDGGIIRTCR had a protein stability index of 0.676 ± 0.023.
With CKTYPTKALVVE, the protein stability index was found to be 0.693 ± 0.0097.
Next, CLAAHARFSLRL: 0.65 ± 0.05; CLALLSYLGFTF: 0.675 ± 0.069; CLCYAWVPAPLF: 0.604 ± 0.018.
On to CLGPGTFLLFFV, for which the protein stability index is 0.5952 ± 0.0026.
Next, CLGPGVLVGCVC: 0.402 ± 0.16.
Next, CLLLGDALGYYG: 0.683 ± 0.033.
CLLSWVLDCFLV displayed a protein stability index of 0.548 ± 0.024.
Next, CLPHSLPHPPPH: 0.6791 ± 0.0056; CLRLAFPSGPCI: 0.683 ± 0.098.
Next, CLSCLFFRVFAD: 0.573 ± 0.08.
For the sequence CLSLPFSLFPLM, the protein stability index is 0.619 ± 0.068.
Sequence CLYVGSRPPRSA displayed a protein stability index of 0.71 ± 0.031.
In turn, CLYVTFFLPCIL yielded a protein stability index of 0.491 ± 0.016.
The sequence CMFSSTSSTNVN gave a protein stability index of 0.731 ± 0.085.
With CMGSDKAGKSVA, the protein stability index worked out at 0.681 ± 0.016.
CNLVCFRRFLYR displayed a protein stability index of 0.62 ± 0.041.
As to CNTPGLSHELLH, the protein stability index came to 0.786 ± 0.11.
CPAAWSLPCRPP: the protein stability index amounted to 0.6599 ± 0.0018.
Turning to CPCASEYIAFTL, the protein stability index was 0.701 ± 0.018.
The sequence CPDSFARSAVLS gave a protein stability index of 0.673 ± 0.074.
Next, CPGLYVRAYGHC: 0.613 ± 0.049; CPLAAGSFSSLS: 0.6608 ± 0.0009.
